Columns and labels:
[1] = target: T1, human mannose-6-phosphate receptor (cation-independent) domain 9 recombinant protein with C-terminal … (human, UniProt P11717 1219-1364); experiment: BLI (Octet RED96), M6PR domain 9 (His tag) on Ni-NTA biosensor, 1:1 model
T1 construct: Loaded on the Ni-NTA biosensor; also called human M6PR; M6PR
Experimental: (§1) As the human M6PR, there was used a protein having the amino acid sequence represented by SEQ ID NO: 42, in which restriction enzyme-derived amino acids were added to both ends of the amino acid sequence corresponding to domain 9 from valine at the 1219th position to phenylalanine at the 1364th position from the N-terminus side in the amino acid sequence of a cation-independent mannose-6-phosphate receptor represented by SEQ ID NO: 41, and a histidine tag was further added to the C-terminus thereof.
(§2) In addition, human M6PR was adjusted to a concentration of […] with HBS-P+ to obtain an M6PR (His tag) solution.
(§3) The sample solution for M6PR affinity measurement was added to a 96-well plate, black (Greiner Bio-One International GmbH) at 200 μL/well. The M6PR (His tag) solution was added to predetermined wells at 200 μL/well. HBS-P+ was added to wells for baseline, dissociation, and washing at 200 μL/well. 10 mM Glycine-HCl (pH 1.7) was added to wells for regeneration at 200 μL/well. 0.5 mM NiCl₂ solution was added to wells for activation at 200 μL/well. This plate and a biosensor (Biosensor/Ni-NTA, ForteBio) were placed at predetermined positions in the Octet RED96.

[2] = target: T2, human TfR extracellular region with N-terminal histidine tag, hTfR-ECD (His tag) (human, UniProt P02786 87-760); experiment: BLI (Octet RED96), hTfR-ECD (His tag) on Ni-NTA biosensor, 1:1 model
T2 construct: Loaded on the Ni-NTA biosensor in the BLI assay; 760 is the known length of human TfR, not a printed number; not shown: histidine tag at the N-terminus
Experimental: In addition, hTfR was adjusted to a concentration of 25 ng/ml, using HBS-P+ (1% BSA) to obtain an hTfR-ECD (His tag) solution.
as §3, with “for hTfR” for “for M6PR”, “The hTfR-ECD” for “The M6PR”, “HBS-P+ (1% BSA)” for “HBS-P+”, “NiCl₂ (1% BSA)” for “NiCl₂”
Note that the measurement was carried out at a temperature of 25 to 30° C.

[3] = target: T1, human mannose-6-phosphate receptor …; experiment: BLI (Octet RED96), M6PR (His tag) on Ni-NTA biosensor
Experimental: as §1, §2, §3

T2 sequence (P02786 other isoform, or with tags, fused parts or gaps): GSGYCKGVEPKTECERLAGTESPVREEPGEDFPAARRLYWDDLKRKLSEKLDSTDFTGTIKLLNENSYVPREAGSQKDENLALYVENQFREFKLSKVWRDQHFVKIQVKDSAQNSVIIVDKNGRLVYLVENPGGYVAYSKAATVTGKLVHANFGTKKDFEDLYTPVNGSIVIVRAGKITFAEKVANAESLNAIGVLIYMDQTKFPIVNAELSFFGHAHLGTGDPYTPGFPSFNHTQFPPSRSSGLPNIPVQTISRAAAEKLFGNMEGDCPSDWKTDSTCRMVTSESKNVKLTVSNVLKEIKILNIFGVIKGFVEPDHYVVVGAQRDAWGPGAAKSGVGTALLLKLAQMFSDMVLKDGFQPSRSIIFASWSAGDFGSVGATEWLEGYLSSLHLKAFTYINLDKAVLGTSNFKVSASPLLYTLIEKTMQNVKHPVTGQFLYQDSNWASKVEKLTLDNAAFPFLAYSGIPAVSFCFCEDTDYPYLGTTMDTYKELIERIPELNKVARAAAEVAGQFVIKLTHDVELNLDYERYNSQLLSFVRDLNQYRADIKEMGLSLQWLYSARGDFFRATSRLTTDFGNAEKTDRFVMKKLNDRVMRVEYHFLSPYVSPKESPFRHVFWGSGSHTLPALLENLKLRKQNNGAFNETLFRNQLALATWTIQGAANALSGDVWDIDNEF
T1 sequence (P11717 other isoform, or with tags, fused parts or gaps limits assumed): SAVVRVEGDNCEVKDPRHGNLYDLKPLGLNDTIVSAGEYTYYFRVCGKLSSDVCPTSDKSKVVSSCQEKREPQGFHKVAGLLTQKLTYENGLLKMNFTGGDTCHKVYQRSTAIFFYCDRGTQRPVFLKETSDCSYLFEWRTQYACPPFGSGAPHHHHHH

B1: Fab-IDS (WT), fusion protein of wild-type hIDS and an anti-hTfR (Fab) antibody (Fab)
heavy: EVQLVQSGAEVKKPGESLKISCKGSGYSFMNYWLGWVRQMPGKGLEWMGDIYPGGDYPTYSEKFKVQVTISADKSISTAYLQLSSLKASDTAMYYCARSGNYDEVAYWGQGTLVTVSSASTKGPSVFPLAPSSKSTSGGTAALGCLVKDYFPEPVTVSWNSGALTSGVHTFPAVLQSSGLYSLSSVVTVPSSSLGTQTYICNVNHKPSNTKVDKKVEPKSCDKTHTGGGGSGGGGSGGGGSSETQANSTTDALNVLLIIVDDLRPSLGCYGDKLVRSPNIDQLASHSLLFQNAFAQQAVCAPSRVSFLTGRRPDTTRLYDFNSYWRVHAGNFSTIPQYFKENGYVTMSVGKVFHPGISSNHTDDSPYSWSFPPYHPSSEKYENTKTCRGPDGELHANLLCPVDVLDVPEGTLPDKQSTEQAIQLLEKMKTSASPFFLAVGYHKPHIPFRYPKEFQKLYPLENITLAPDPEVPDGLPPVAYNPWMDIRQREDVQALNISVPYGPIPVDFQRKIRQSYFASVSYLDTQVGRLLSALDDLQLANSTIIAFTSDHGWALGEHGEWAKYSNFDVATHVPLIFYVPGRTASLPEAGEKLFPYLDPFDSASQLMEPGRQSMDLVELVSLFPTLAGLAGLQVPPRCPVPSFHVELCREGKNLLKHFRFRDLEEDPYLPGNPRELIAYSQYPRPSDIPQWNSDKPSLKDIKIMGYSIRTIDYRYTVWVGFNPDEFLANFSDIHAGELYFVDSDPLQDHNMYNDSQGGDLFQLLMP
light: DIVMTQTPLSLSVTPGQPASISCRSSQSLVHSNGNTYLHWYLQKPGQSPQLLIYKVSNRFSGVPDRFSGSGSGTDFTLKISRVEAEDVGVYYCSQSTHVPWTFGQGTKVEIKRTVAAPSVFIFPPSDEQLKSGTASVVCLLNNFYPREAKVQWKVDNALQSGNSQESVTEQDSKDSTYSLSSTLTLSKADYEKHKVYACEVTHQGLSSPVTKSFNRGEC
modifications: N-linked sugar chains containing mannose-6-phosphate (M6P) on the asparagines at positions 221 and 255 of the hIDS portion (numbering of SEQ ID NO: 1)
notes: Humanized anti-hTfR Fab; Expressed in ExpiCHO cells
**Q.** What does the source list for B1?
**A.** Kd [1]: 2.32 nM; koff [1]: 0.000586 s⁻¹; kon [1]: 253000 M⁻¹ s⁻¹; Kd [2]: 0.67 nM; koff [2]: 0.000331 s⁻¹; kon [2]: 494000 M⁻¹ s⁻¹

B2: Fab-IDS (m2), fusion protein of hIDS mutant muhIDS-2 (N221Q, N255Q) and an anti-hTfR (Fab) antibody (Fab)
heavy: EVQLVQSGAEVKKPGESLKISCKGSGYSFMNYWLGWVRQMPGKGLEWMGDIYPGGDYPTYSEKFKVQVTISADKSISTAYLQLSSLKASDTAMYYCARSGNYDEVAYWGQGTLVTVSSASTKGPSVFPLAPSSKSTSGGTAALGCLVKDYFPEPVTVSWNSGALTSGVHTFPAVLQSSGLYSLSSVVTVPSSSLGTQTYICNVNHKPSNTKVDKKVEPKSCDKTHTGGGGSGGGGSGGGGSSETQANSTTDALNVLLIIVDDLRPSLGCYGDKLVRSPNIDQLASHSLLFQNAFAQQAVCAPSRVSFLTGRRPDTTRLYDFNSYWRVHAGNFSTIPQYFKENGYVTMSVGKVFHPGISSNHTDDSPYSWSFPPYHPSSEKYENTKTCRGPDGELHANLLCPVDVLDVPEGTLPDKQSTEQAIQLLEKMKTSASPFFLAVGYHKPHIPFRYPKEFQKLYPLEQITLAPDPEVPDGLPPVAYNPWMDIRQREDVQALQISVPYGPIPVDFQRKIRQSYFASVSYLDTQVGRLLSALDDLQLANSTIIAFTSDHGWALGEHGEWAKYSNFDVATHVPLIFYVPGRTASLPEAGEKLFPYLDPFDSASQLMEPGRQSMDLVELVSLFPTLAGLAGLQVPPRCPVPSFHVELCREGKNLLKHFRFRDLEEDPYLPGNPRELIAYSQYPRPSDIPQWNSDKPSLKDIKIMGYSIRTIDYRYTVWVGFNPDEFLANFSDIHAGELYFVDSDPLQDHNMYNDSQGGDLFQLLMP
light: DIVMTQTPLSLSVTPGQPASISCRSSQSLVHSNGNTYLHWYLQKPGQSPQLLIYKVSNRFSGVPDRFSGSGSGTDFTLKISRVEAEDVGVYYCSQSTHVPWTFGQGTKVEIKRTVAAPSVFIFPPSDEQLKSGTASVVCLLNNFYPREAKVQWKVDNALQSGNSQESVTEQDSKDSTYSLSSTLTLSKADYEKHKVYACEVTHQGLSSPVTKSFNRGEC
**Q.** Does B2 bind [3]?
**A.** no binding

**Q.** What about the Kd [2] of the same binder?
**A.** 0.661 nM

**Q.** And the koff [2]?
**A.** 0.00031 s⁻¹

**Q.** What about the kon [2] of the same binder?
**A.** 469000 M⁻¹ s⁻¹

B3: Fab-IDS (m1), fusion protein of hIDS mutant muhIDS-1 (T223A, S257A) and an anti-hTfR (Fab) antibody (Fab)
heavy: EVQLVQSGAEVKKPGESLKISCKGSGYSFMNYWLGWVRQMPGKGLEWMGDIYPGGDYPTYSEKFKVQVTISADKSISTAYLQLSSLKASDTAMYYCARSGNYDEVAYWGQGTLVTVSSASTKGPSVFPLAPSSKSTSGGTAALGCLVKDYFPEPVTVSWNSGALTSGVHTFPAVLQSSGLYSLSSVVTVPSSSLGTQTYICNVNHKPSNTKVDKKVEPKSCDKTHTGGGGSGGGGSGGGGSSETQANSTTDALNVLLIIVDDLRPSLGCYGDKLVRSPNIDQLASHSLLFQNAFAQQAVCAPSRVSFLTGRRPDTTRLYDFNSYWRVHAGNFSTIPQYFKENGYVTMSVGKVFHPGISSNHTDDSPYSWSFPPYHPSSEKYENTKTCRGPDGELHANLLCPVDVLDVPEGTLPDKQSTEQAIQLLEKMKTSASPFFLAVGYHKPHIPFRYPKEFQKLYPLENIALAPDPEVPDGLPPVAYNPWMDIRQREDVQALNIAVPYGPIPVDFQRKIRQSYFASVSYLDTQVGRLLSALDDLQLANSTIIAFTSDHGWALGEHGEWAKYSNFDVATHVPLIFYVPGRTASLPEAGEKLFPYLDPFDSASQLMEPGRQSMDLVELVSLFPTLAGLAGLQVPPRCPVPSFHVELCREGKNLLKHFRFRDLEEDPYLPGNPRELIAYSQYPRPSDIPQWNSDKPSLKDIKIMGYSIRTIDYRYTVWVGFNPDEFLANFSDIHAGELYFVDSDPLQDHNMYNDSQGGDLFQLLMP
light: DIVMTQTPLSLSVTPGQPASISCRSSQSLVHSNGNTYLHWYLQKPGQSPQLLIYKVSNRFSGVPDRFSGSGSGTDFTLKISRVEAEDVGVYYCSQSTHVPWTFGQGTKVEIKRTVAAPSVFIFPPSDEQLKSGTASVVCLLNNFYPREAKVQWKVDNALQSGNSQESVTEQDSKDSTYSLSSTLTLSKADYEKHKVYACEVTHQGLSSPVTKSFNRGEC
**Q.** Does B3 bind [3]?
**A.** no binding

**Q.** What about the Kd [2] of the same binder?
**A.** 0.678 nM

**Q.** And the koff [2]?
**A.** 0.000331 s⁻¹

**Q.** And the kon [2]?
**A.** 489000 M⁻¹ s⁻¹
